From FireProtDB (doi:10.1016/s0014-5793(99)00158-1)

B1: Barstar, P11540 (parent)
chain: MKKAVINGEQIRSISDLHQTLKKELALPEYYGENLDALWDCLTGWVEYPLVLEWRQFEQSKQLTENGAESVLQVFREAKAEGCDITIILS

Variants of: B1
Conditions: Bacillus amyloliquefaciens; pH 6.2; Thermal; DSC; Na-acetate 10 mM; NaCl 0.05 M; reversible: yes; structure 1BTA; whole UniProt chain shown

## C41A
  Tm: 74.1 °C
  unfolding enthalpy (calorimetric): 51 kcal/mol
  unfolding enthalpy (van 't Hoff): 73 kcal/mol

## C83A
  Tm: 71.9 °C
  unfolding enthalpy (calorimetric): 49 kcal/mol
  unfolding enthalpy (van 't Hoff): 68 kcal/mol

## C41A C83A
  Tm: 73.6 °C
  unfolding enthalpy (calorimetric): 73 kcal/mol
  unfolding enthalpy (van 't Hoff): 71 kcal/mol
